Measured values published in patent publication US20180339041A1 (Kyowa Kirin, published 2018).

Legend:
[1] = target: T1, C-terminally FLAG-tagged cynomolgus monkey Gas6 recombinant protein (cGas6-F) (cynomolgus monkey, UniProt Q14393 31-678 (human entry), gamma-carboxylated glutamic acid residues in the Gla domain (producer cells co-express rat VKOR and human GGCX); positions not given); experiment: ELISA: cGas6-F (1 µg/mL) captured on coated anti-FLAG M2 antibody; biotinylated test antibody; streptavidin-HRP/TMB; absorbance 450-570 nm, N=2 (Example 6) [B]
T1 construct: also called cynomolgus monkey Gas6-F; monkey Gas6-F
T1 chain: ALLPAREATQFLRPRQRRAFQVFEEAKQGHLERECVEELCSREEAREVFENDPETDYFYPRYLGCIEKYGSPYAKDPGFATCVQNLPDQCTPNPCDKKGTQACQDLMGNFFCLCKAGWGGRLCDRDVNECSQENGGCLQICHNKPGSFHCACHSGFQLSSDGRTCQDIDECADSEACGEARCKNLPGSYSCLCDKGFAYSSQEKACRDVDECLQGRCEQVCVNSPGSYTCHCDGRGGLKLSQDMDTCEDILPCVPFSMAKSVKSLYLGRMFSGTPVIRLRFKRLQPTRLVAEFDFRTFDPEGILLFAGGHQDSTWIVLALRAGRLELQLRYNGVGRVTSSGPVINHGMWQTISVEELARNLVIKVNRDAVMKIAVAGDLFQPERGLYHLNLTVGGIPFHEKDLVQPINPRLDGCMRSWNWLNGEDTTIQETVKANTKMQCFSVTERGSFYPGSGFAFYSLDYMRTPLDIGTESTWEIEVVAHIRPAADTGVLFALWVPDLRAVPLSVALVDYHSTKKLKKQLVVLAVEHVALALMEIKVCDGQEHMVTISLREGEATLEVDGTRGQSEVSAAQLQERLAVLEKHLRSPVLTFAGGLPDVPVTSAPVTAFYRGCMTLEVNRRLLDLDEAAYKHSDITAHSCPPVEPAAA
Protocol: (§1) First, 2 μg/mL anti-FLAG antibody [Monoclonal ANTI-FLAG M2 antibody produced in mouse (manufactured by Sigma-Aldrich Co. LLC) diluted with PBS (manufactured by Nacalai Tesque, Inc.)] was dispensed at 50 μL/well to a 96-well plate for ELISA (manufactured by Nalge Nunc International), and the plate was left standing overnight at 4° C. for adsorption. After removal of the immobilization solution, 1% BSA-PBS (manufactured by Nacalai Tesque, Inc.) was added thereto at 300 μL/well, and the plate was left standing at room temperature for 1 hour for blocking and washed five times with Tween 20-PBS (manufactured by Wako Pure Chemical Industries Ltd.).
(§2) Each antibody solution was dispensed thereto at 50 μL/well, and the plate was left standing at room temperature for 1 hour. This plate was washed five times with Tween 20-PBS. Then, Streptavidin HRP Conjugate (manufactured by R&D Systems, Inc.) diluted 200-fold with 1% BSA-PBS was dispensed thereto at 50 μL/well, and the plate was left standing at room temperature for 1 hour. This plate was washed five times with Tween 20-PBS, and TMB (manufactured by Sigma-Aldrich Co. LLC) was added thereto at 50 μL/well and reacted. […] The absorbance at a sample wavelength of 450 nm and a reference wavelength of 570 nm (450 nm-570 nm) was measured using a plate reader.

[2] = target: T2, C-terminally FLAG-tagged human Gas6 recombinant protein (hGas6-F) (human, UniProt Q14393 31-678, gamma-carboxylated glutamic acid residues in the Gla domain (producer cells co-express rat VKOR and human GGCX); positions not given); experiment: ELISA: hGas6-F (1 µg/mL) captured on coated anti-FLAG M2 antibody; biotinylated test antibody; streptavidin-HRP/TMB; absorbance 450-570 nm, N=2 (Example 6) [A]
T2 construct: also called human Gas6-F; human Gas6 protein
T2 sequence: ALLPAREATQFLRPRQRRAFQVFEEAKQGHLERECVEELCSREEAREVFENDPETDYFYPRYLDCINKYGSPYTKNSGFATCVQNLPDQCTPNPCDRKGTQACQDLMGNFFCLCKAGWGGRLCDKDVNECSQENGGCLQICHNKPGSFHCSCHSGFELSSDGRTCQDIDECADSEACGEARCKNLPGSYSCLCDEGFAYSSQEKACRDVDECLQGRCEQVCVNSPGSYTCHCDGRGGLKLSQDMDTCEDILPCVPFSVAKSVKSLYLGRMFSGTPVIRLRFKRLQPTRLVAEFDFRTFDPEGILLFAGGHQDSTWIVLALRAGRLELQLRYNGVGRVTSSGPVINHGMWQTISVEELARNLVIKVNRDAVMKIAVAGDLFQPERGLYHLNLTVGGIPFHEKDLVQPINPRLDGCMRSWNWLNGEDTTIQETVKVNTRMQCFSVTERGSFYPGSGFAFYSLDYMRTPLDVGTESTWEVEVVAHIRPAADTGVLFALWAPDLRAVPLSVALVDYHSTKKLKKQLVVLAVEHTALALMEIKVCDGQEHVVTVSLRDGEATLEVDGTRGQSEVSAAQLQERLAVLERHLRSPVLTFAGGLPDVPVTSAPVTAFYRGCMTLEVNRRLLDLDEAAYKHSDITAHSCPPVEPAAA
Protocol: as §1, §2

B1: anti-human Gas6 mouse monoclonal antibody KM5320 (KM5320-mKG1 antibody) (antibody, V domains shown)
VH: QIQLVQSGPELKKPGETVKISCKASGYTFTNYGMNWVKQAPGKGLKWMGWINTETGEPTYSDDFKGRFAFSLETSATTAYLQINNLRNEDMATYFCAREDGYYGTLDYWGQGTSVTVSS
VL: SIVMTQTPKFLLVSAGDRVTITCKASQSVSNDVAWYQQKPGQSPKVLIYYASNRYTGVPDRFTGSGYGTDFTFTISTVQAEDLAVYFCQQDYSSPWTFGGGTKLEIK
notes: Hybridoma-derived mouse IgG1, kappa; also called KM5320 antibody
[1]
  EC50 (read off the curve): ~4 ng/mL
[2]
  EC50 (read off the curve): ~3 ng/mL

B2: anti-human Gas6 mouse monoclonal antibody KM5321 (KM5321-mKG1 antibody) (antibody, V domains shown)
VH: QIQLVQSGPELKKPGETVKISCRASGYTFTNYGMNWVKQAPGKGLKWMGWINTNTGEPTYTEEFKGRFAFSLETSATTAYLQINDLKNEDTATYFCARDEGWFVYWGQGTLITVSA
VL: ETTVTQSPASLSVATGEKVTIRCITSTDIDDDMNWYQQKPGEPPKLLISEGNTLRPGVPSRFSSSGYGTDFVFTIENTLSEDVADYYCLQTDSVPLTFGAGTKLELK
notes: Hybridoma-derived mouse IgG1, kappa; also called KM5321 antibody
[1]
  EC50 (read off the curve): ~4 ng/mL
[2]
  EC50 (read off the curve): ~4 ng/mL
